According to US7521540B2, “CYR61 compositions and methods” (Munin Corporation, priority 1996, dated 2009):

Assays:
NIH 3T3 cells = conditions: U.S. Pat. No. 5,408,040; cited from earlier work
cornea = test: Cornea assay for angiogenic factors; assay type: in vivo, rat; conditions: rat, in vivo
Excerpt: Another assay for modulators of angiogenesis is an in vivo assay for assessing the effect of a suspected modulator in the presence of an ECM signaling molecule-related biomaterial, such as Cyr61, on angiogenesis is the Cornea Assay. The Cornea Assay takes advantage of the absence of blood vessels in the cornea, which in the presence of an angiogenic factor, results in the detectable development of capillaries extending from the sclera into the cornea. Friedlander et al., Science 270:1500-1502 (1995). This ingrowth of new blood vessels from the sclera can be microscopically monitored. Further, the visually determined rate of migration can be used to assess changes in the rate of angiogenesis. These cornea assays may be performed using a wide variety of animal models. Preferably, the cornea assays are performed using rats. By way of example, an assay for suspected modulators of Cyr61 using this assay is disclosed. To perform this assay, Cyr61 is initially titrated using primary capillary endothelial cells to determine effective concentrations of Cyr61. Subsequently, Cyr61, in the presence or absence of a suspected modulator, is surgically implanted into the corneas of mammalian laboratory animals, e.g., rabbits or rats. In a preferred embodiment, Cyr61 (or Cyr61 and a suspected modulator) is embedded in a biocompatible matrix, using matrix materials and techniques that are standard in the art. Subsequently, eyes containing implants are visually observed for growth of the readily visible blood vessels within the eye. Control implantations may consist of physiologically balanced buffers embedded in the same type of matrix and implanted into eyes of the same type of laboratory animal receiving the Cyr61-containing implants.
Although rats of various sizes can be used in the cornea assay, a preferred size for the rats is 150-200 g/animal. Anesthesia is induced with Methoxyflurane and is maintained for 40-60 minutes with sodium pentobarbital (50 mg/kg, delivered intraperitoneally). The eyes are gently opened and secured in place by clamping the upper eyelid with a non-traumatic hemostat. Two drops of sterile proparacaine hydrochloride (0.5%) are then placed on each eye as to effect local anesthesia. Using a suitable surgical blade such as a No. 11 Bard Parker blade, an approximately 1.5 mm incision is made approximately 1 mm from the center of the cornea. […] Once the cornea pocket is made, the spatula is removed and the distance between the limbus and base of the pocket is measured to make sure the separation is at least about 1 mm. […]
Following surgery, animals are examined daily for seven days with the aid of a stereomicroscope to check for inflammation and responses. […] During this seven day period, animals are monitored for implant position and corneal exudate. […]

HUVE cells [1] = test: HUVE cell adhesion to wild-type and double-mutant Cyr61; assay type: cell-based, human
Description: Immobilized cells were stained with methylene blue and absorbances (A620) were recorded. relative binding capacities (binding of cells not exposed to a pre-incubation compound defined as 100%) are presented in Table III.

[2] = test system: 1064SK primary human foreskin fibroblasts; test: Fibroblast adhesion assay (methylene blue, A620); assay type: cell-based; conditions: protein coated on wells
Description: The ability of Cyr61 to mediate cell adhesion in normal fibroblasts was investigated. Microtiter wells were coated with purified recombinant Cyr61 protein, and 1064SK primary human foreskin fibroblasts were allowed to adhere under serum-free conditions. […] 50 μl cell suspensions were plated on microtiter wells coated with varying concentrations (0.5-5.0 μg/ml) of Cyr61 protein. After incubation at 37° C. for 30 minutes, adherent cells were fixed and stained with methylene blue.
In another experiment, microtiter wells were coated with either BSA, Cyr61 (2 μg/ml), or vitronectin (VN; 0.5 μg/ml) and blocked with affinity-purified anti-Cyr61 antibodies for one hour at 37° C. before 1064SK cells were plated.
The effects of divalent cations in cell adhesion to Cyr61 was also investigated. […] Data are means from triplicate determinations. […] Inhibition by Ca^2+ is characteristic of adhesion through some members of the β1 family of integrins, including receptors that bind type I collagen, laminin, and vitronectin (integrins α2β1, α6β1, and αVβ1) in fibroblasts, as well as the lymphocyte-specific integrin αLβ2.
The effects of RGD peptides on Cyr61-mediated fibroblast binding was tested by plating cells in wells coated with Cyr61 (2 μg/ml). Type I collagen (2 μg/ml) or vitronectin (0.5 μg/ml), 2 mM GRGDSP or GRGESP peptide was then added.
Cells were also pre-incubated with 40 μg/ml monoclonal antibodies against the integrin α5 or the integrin αV subunits at room temperature for 30 minutes, then plated on wells coated with Cyr61 (2 μg/ml), vitronectin (0.5 μg/ml) or fibronectin (FN, 1 μg/ml). […] The data are means, representative of three experiments.
The 1064 SK cells were also analyzed using the monoclonal antibody JBIA, which binds the β1 integrin subunit. Cells were pre-incubated with the antibody (50 μg/ml) before plating on microtiter wells coated with Cyr61 (2 μg/ml), Type I collagen (2 μg/ml), or vitronectin (0.5 μg/ml). […] Data are means, representative of three experiments.
To identify the specific β1 integrin that mediates fibroblast adhesion to Cyr61, the inhibitory effects of function-blocking monoclonal antibodies were tested against various integrin α subunits. […] The data are means, representative of at least three experiments.

[3] = test system: primary human foreskin fibroblasts; test: Cyr61-regulated gene expression (multi-gene blot, Northern); assay type: cell-based
Description: Purified, soluble, recombinant Cyr61 protein was added to cultures of primary human foreskin fibroblasts for 24 hours. From these cells, mRNA was isolated for preparation of probes to hybridize to a multi-gene blot (Clontech Atlas Human Array 1.2 cat no. 7850-1) containing about 650 genes. The levels of expression of these genes in Cyr61-treated cells were compared to that of control cells. […] These findings have been confirmed by Northern blot analysis showing increases or decreases of the mRNAs in question in Cyr61-treated cells. A time course of expression changes has been established. In particular, by 6 hours after its addition, Cyr61 has induced expression of VEGF-A mRNA and the induction is still evident at 12 and 24 hours post-addition. Also at 12 and 24 hours post-addition, Cyr61 has induced expression of VEGF-A polypeptide. With respect to VEGF-C, induction of mRNA is clearly evident 12 hours after addition of Cyr61 and the induction persists at least through 24 hours post-addition. Cyr61 is expected to induce the expression of VEGF-C polypeptide with similar kinetics.

[4] = Heparin binding assay (salt elution from heparin-Sepharose/agarose)
[5] = test system: 1064SK human skin fibroblasts; test: Human skin fibroblast migration; assay type: cell-based; conditions: 1064SK cells
HUVE cells [6] = test: HUVE cell adhesion to hCyr61-coated plates; assay type: cell-based, human; conditions: serum-free conditions
Description: Immunological plates (96-well ProBind assay plates, Falcon) were coated with 0.1-30 μg/ml hCyr61, fibronectin (Gibco BRL) or vitronectin (Gibco BRL) in phosphate-buffered saline (PBS) containing 0.1% protease-free BSA (Sigma) for 16 hrs at 4° C. The wells were blocked with 1% BSA in PBS for 1 hr at room temperature and washed with PBS. […] In some experiments, fbs was added to 5-10%. Also, in experiments involving vitronectin-coateci plates, endogenous vitronectin was removed from fbs by immunoaffinity chromatography using bovine polyclonal anti-vitronectin antibodies (Gibco). Norris et al., J. Cell Sci. 95:255-262 (1990). Cells were plated at 10^4 cells/well. After 2 hours, cells were fixed with 4% paraformaldehyde, stained with methylene blue and quantified as described. Oliver et al., J. Cell Sci. 92:513-518 (1989).
The ability of HUVE cells to adhere to hCyr61-coated plates in the presence of mock-immunodepleted fbs and serum immunodepleted with anti-bovine vitronectin antibodies were compared. […] The addition of vitronectin (30 μg/ml) to vitronectin-immunodepleted serum restored the ability of HUVE cells to adhere and spread on hCyr61-coated plates to the same level observed when whole serum was used in the cell attachment assay. […]
Additionally, HUVE cell attachment and spreading in the presence of an increasing quantity of vitronectin was examined. […]

Row | Molecule | migration of NIH 3T3 and BASM cells (reported) (NIH 3T3 cells) | angiogenic effect in cornea assay (cornea) | HUVEC binding (HUVE cells [1]) | support of 1064SK fibroblast adhesion [2] | induction of VEGF, MMP1, MMP3 etc. [3] | heparin binding [4] | NaCl concentration of elution from heparin-Sepharose/agarose ([4]; increasing salt concentrations) | migration of human fibroblasts [5] | HUVE cell attachment and spreading (HUVE cells [6])
1 | CTGF: Human ortholog of Fisp12, SEQ ID NO:8 (protein, listed as Homo sapiens) MTAASMGPVRVAFVVLLALCSRPAVGQNCSGPCRCPDEPAPRCPAGVSLVLDGCGCCRVCAKQLGELCTERDPCDPHKGLFCDFGSPANRKIGVCTAKDGAPCIFGGTVYRSGESFQSSCKYQCTCLDGAVGCMPLCSMDVRLPSPDCPFPRRVKLPGKCCEEWVCDEPKDQTVVGPALAAYRLEDTFGPDPTMIRANCLVQTTEWSACSKTCGMGISTRVTNDNASCRLEKQSRLCMVRPCEADLEENIKKGKKCIRTPKISKPIKFELSGCTSMKTYRAKFCGVCTDGRCCTPHRTTTLPVEFKCPDGEVMKKNMMFIKTCACHYNCPGDNDIFESLYYRKMYGDMA | reported to induce the migration | confirm the effect of angiogenic factors | – | – | – | – | – | – | –
2 | DM: Cyr61 double mutant with both heparin-binding motifs mutated (SEQ ID NO:30 region) (protein) TCPAACHCPLEAPKCAPGVGLVRDGCGCCKVCAKQLNEDCSKTQPCDHTKGLECNFGASSTALKGICRAQSEGRPCEYNSRIYQNGESFQPNCKHQCTCIDGAVGCIPLCPQELSLPNLGCPNPRLVKVSGQCCEEWVCDEDSIKDSLDDQDDLLGLDASEVELTRNNELIAIGKGSSLKRLPVFGTEPRVLFNPLHAHGQKCIVQTTSWSQCSKSCGTGISTRVTNDNPECRLVKETRICEVRPCGQPVYSSSLKAGAACSATAKSPEPVRFTYAGCSSVAAYAPKYCGCVDGRCCTPLQTRTVKMRFRCEDGEMFSKNVMMIQSCKCNYNCPHPNEASFRLYSLFNDIHKFRD | – | – | still mediated HUVEC binding | unable to support 1064SK fibroblast adhesion at any concentration tested | do not induce the expression of the above-referenced genes | severely deficient in heparin binding | up to 0.25 M NaCl | – | –
3 | human Cyr61: Human Cyr61, 381 amino acids, SEQ ID NO:4, expressed in the baculovirus system (protein, listed as Homo sapiens) MSSRIARALALVVTLLHLTRLALSTCPAACHCPLEAPKCAPGVGLVRDGCGCCKVCAKQLNEDCSKTQPCDHTKGLECNFGASSTALKGICRAQSEGRPCEYNSRIYQNGESFQPNCQHQCTCIDGAVGCIPLCPQELSLPNLGCPNPRLVKVTGQCCEEWVCDEDSIKDPMEDQDGLLGKELGFDASEVELTRNNELIAVGKGRSLKRLPVFGMEPRILYNPLQGQKCIVQTTSWSQCSKTCGTGISTRVTNDNPECRLVKETRICEVRPCGQPVYSSLKKGKKCSKTKKSPEPVRFTYAGCLSVKKYRPKYCGSCVDGRCCTPQLTRTVKMRFRCEDGETFSKNVMMIQSCKCNYNCPHANEAAFPFYRLFNDIHKFRD | – | – | – | – | – | quantitatively bound to heparin-agarose | – | induced migration of the human fibroblast cells | mediated cell attachment but not spreading
